Article doi:10.1101/2023.07.07.547762

Molecular target: NES-Venus-miniGs
Assay: BRET (NanoLuc-labelled receptor and Venus-labelled mini-Gs recruitment)
Conditions: three independent experiments; for percent of parent: Emax of the DMCH concentration-response; for other: pEC50: pEC50 of the agonist DMCH for mini-Gs recruitment

Substance	percent of parent [%]	other: pEC50
mTAAR7f with N-terminal twin-strep tag and SNAP-tag and C-terminal nanoluc (wild type) (from UniProt Q5QD08) C131A	60	4.9
mTAAR7f with N-terminal twin-strep tag and SNAP-tag and C-terminal nanoluc (wild type) (from UniProt Q5QD08) D127A	0	–
mTAAR7f with N-terminal twin-strep tag and SNAP-tag and C-terminal nanoluc (wild type) (from UniProt Q5QD08) V315A	0	–
mTAAR7f with N-terminal twin-strep tag and SNAP-tag and C-terminal nanoluc (wild type) (from UniProt Q5QD08) W286Y	24	5.3
mTAAR7f with N-terminal twin-strep tag and SNAP-tag and C-terminal nanoluc (wild type) (from UniProt Q5QD08) Y132A	17	3.6
mTAAR7f with N-terminal twin-strep tag and SNAP-tag and C-terminal nanoluc (wild type) (from UniProt Q5QD08) Y289A	47	4.2
